Test results from article PMC1636413 (Nucleic Acids Research, 2006).
Residue numbers refer to the chain shown, from its start.

Key:
Assay in all cases: EMSA
MutSwt = target: T1, MutSwt (Escherichia coli K12, UniProt P23909 1-853)
T1 sequence: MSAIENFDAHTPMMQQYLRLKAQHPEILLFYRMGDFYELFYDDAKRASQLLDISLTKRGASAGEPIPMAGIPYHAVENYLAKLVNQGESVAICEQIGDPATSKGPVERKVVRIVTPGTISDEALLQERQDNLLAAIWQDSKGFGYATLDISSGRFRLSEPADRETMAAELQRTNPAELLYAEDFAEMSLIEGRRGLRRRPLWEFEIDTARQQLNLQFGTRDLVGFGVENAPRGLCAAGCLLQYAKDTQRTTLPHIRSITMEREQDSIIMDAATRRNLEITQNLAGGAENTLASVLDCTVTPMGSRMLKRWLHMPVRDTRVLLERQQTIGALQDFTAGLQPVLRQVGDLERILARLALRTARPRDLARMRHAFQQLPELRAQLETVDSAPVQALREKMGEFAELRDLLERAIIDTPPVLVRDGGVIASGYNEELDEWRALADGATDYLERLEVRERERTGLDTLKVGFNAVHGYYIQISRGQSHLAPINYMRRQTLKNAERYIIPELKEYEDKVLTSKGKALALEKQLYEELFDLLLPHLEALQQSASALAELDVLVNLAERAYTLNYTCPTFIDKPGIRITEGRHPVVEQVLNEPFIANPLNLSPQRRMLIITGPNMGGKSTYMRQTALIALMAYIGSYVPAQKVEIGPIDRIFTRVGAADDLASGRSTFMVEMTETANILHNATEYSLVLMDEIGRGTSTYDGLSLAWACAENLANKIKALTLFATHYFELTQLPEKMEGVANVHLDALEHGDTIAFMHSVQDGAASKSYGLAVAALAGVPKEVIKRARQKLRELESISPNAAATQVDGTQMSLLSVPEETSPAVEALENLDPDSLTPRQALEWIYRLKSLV

MutSCF/D835R = target: T2, MutSCF/D835R (Escherichia coli K12, UniProt P23909 1-853, C93A;C235S;C239A;C297S;C569S;C711V;D835R)
T2 sequence: T1 sequence with C93A, C235S, C239A, C297S, C569S, C711V, D835R

[1] = target: T3, MutSCF (cysteine-free MutS) (Escherichia coli K12, UniProt P23909 1-853, C93A;C235S;C239A;C297S;C569S;C711V)
T3 sequence: T1 sequence with C93A, C235S, C239A, C297S, C569S, C711V

B1: 42 bp G/T heteroduplex (dsDNA)
DNA 1: TATTAATTTCGCGGGCTCGAGAGCTTCATCCTCTACGCCGGA
DNA 2: TCCGGCGTAGAGGATGAAGCTTTCGAGCCCGCGAAATTAATA
- binding result (MutSwt): binds
- apparent K (half saturation) (MutSCF/D835R): 45 ± 3 nM
- apparent K (half saturation) [1]: 42 ± 2 nM
